From patent US20230144447A1 (published 2023) come the findings set out here.

The target in this assay is T1, recombinant human CD22 protein with Fc segment (staining reagent) (human, UniProt P20273 20-687).
T1 construct: Reagent used for flow cytometry staining of the CAR; also called Fc fragment of a recombinant human CD22 protein; Fc segment of recombinant human CD22 protein; not shown: Fc segment
T1 sequence (looked up): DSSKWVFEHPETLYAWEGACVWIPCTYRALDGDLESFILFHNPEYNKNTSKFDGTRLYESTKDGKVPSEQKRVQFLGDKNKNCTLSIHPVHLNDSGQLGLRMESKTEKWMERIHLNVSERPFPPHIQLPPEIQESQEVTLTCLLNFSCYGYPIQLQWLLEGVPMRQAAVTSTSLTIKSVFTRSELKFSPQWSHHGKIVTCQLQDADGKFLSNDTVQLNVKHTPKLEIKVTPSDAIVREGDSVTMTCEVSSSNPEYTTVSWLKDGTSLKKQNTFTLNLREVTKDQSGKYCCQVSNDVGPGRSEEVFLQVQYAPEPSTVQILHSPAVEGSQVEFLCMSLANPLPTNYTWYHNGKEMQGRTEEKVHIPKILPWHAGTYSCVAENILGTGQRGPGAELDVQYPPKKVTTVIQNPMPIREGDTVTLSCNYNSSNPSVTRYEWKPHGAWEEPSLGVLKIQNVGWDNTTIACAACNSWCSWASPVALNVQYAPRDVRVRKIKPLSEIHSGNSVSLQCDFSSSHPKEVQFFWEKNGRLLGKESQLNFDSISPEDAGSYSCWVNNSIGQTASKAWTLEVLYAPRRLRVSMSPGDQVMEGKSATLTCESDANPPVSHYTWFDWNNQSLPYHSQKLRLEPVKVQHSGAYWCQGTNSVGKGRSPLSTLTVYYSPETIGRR
Description: flow cytometry of CAR-T cells stained with recombinant human CD22-Fc protein, with untransduced T cells as control. Here is the method:
0.2×10⁶ of CART-CD22.5, CART-CD22.13 and CART-CD22.14 sample cells cultured to Day 6 in Example 2 (FIG. 2) were taken, and, after staining the Fc segment of recombinant human CD22 protein, the expression level of CAR-CD22 protein on the surface of T cell membranes was analyzed by flow cytometry, with untransduced T cells (NT cells) used as control.

B1: CAR-T22.14 chimeric antigen receptor (anti-CD22 scFv from antibody 4G6, CD8 hinge and transmembrane region, 4-1BB, CD3 zeta), on primary human T cells (other)
chain: QVQLVQSGAEVKKPGSSVKVSCKPSGDTFSNYAISWVRQAPGQGLEWMGRIIPILGMAIYAPKFQGRVTITADKSTNTAFMDLTSLYFEDTAVYYCARAPTYWGSKDYFDYWGQGTLVTVSSGGGGSGGGGSGGGGSAIQLTQSPSSLSASVGDRVTITCRASQDISSGLAWYQQKPGTAPKLLIYDASSLESGVPSRFSGSGSGTDFTLTISSLQPDDFATYYCQQFNSFPYTFGQGTKLEIKFVPVFLPAKPTTTPAPRPPTPAPTIASQPLSLRPEACRPAAGGAVHTRGLDFACDIYIWAPLAGTCGVLLLSLVITLYCKRGRKKLLYIFKQPFMRPVQTTQEEDGCSCRFPEEEEGGCELRVKFSRSADAPAYQQGQNQLYNELNLGRREEYDVLDKRRGRDPEMGGKPRRKNPQEGLYNELQKDKMAEAYSEIGMKGERRRGKGHDGLYQGLSTATKDTYDALHMQALPPR
notes: CAR on the membrane of lentivirus-transduced T cells; also called CART-CD22.14; CAR22.14
In the case of B1, the binding result is “binds”.

B2: CAR-T22.13 chimeric antigen receptor (anti-CD22 scFv from antibody 16F7, CD8 hinge and transmembrane region, 4-1BB, CD3 zeta), on primary human T cells (other)
chain: EVQLVQSGAEVKKPGESLKISCKGSGYNFTSYWIGWVRQMPGKGLEWMGIIYPGDSDTRYSPSFQGQVTISADKSISTAYLQWSSLKASDTAMYYCATPTYYFGSVAFDIWGQGTMVTVSSGGGGSGGGGSGGGGSEIVLTQSPDFQSVTPKEKVTITCRASQSIGSSLHWYQQKPDQSPKLLIKYASQSFSGVPSRFSGSGSGTDFTLTINSLEAEDAAAYYCHQSSSLPYTFGQGTKLEIKFVPVFLPAKPTTTPAPRPPTPAPTIASQPLSLRPEACRPAAGGAVHTRGLDFACDIYIWAPLAGTCGVLLLSLVITLYCKRGRKKLLYIFKQPFMRPVQTTQEEDGCSCRFPEEEEGGCELRVKFSRSADAPAYQQGQNQLYNELNLGRREEYDVLDKRRGRDPEMGGKPRRKNPQEGLYNELQKDKMAEAYSEIGMKGERRRGKGHDGLYQGLSTATKDTYDALHMQALPPR
notes: CAR on the membrane of lentivirus-transduced T cells; also called CART-CD22.13; CAR22.13
As to B2, the binding result was “binds”.
